Measurements from patent publication US20090022728A1 (RINAT NEUROSCIENCE, published 2009).
Blank lines part the entries; values can stand above or below the binder they belong to. Where no end group is shown, it is not given here.

What was measured:
Aβ1-40 peptide [1] = molecular target: T1, Aβ1-40 peptide; assay: SPR, mAb on CM5 chip, peptide flowed
T1 construct: synthetic peptide, not biotinylated; also called 1-40 (WT); beta amyloid 1-40
Experimental: Affinities of 9TL monoclonal antibody were determined using the BIAcore3000™ surface plasmon resonance (SPR) system (BIAcore, INC, Piscaway N.J.). […] CM5 chips were activated with N-ethyl-N′-(3-dimethylaminopropyl)-carbodiimide hydrochloride (EDC) and N-hydroxysuccinimide (NHS) according to the supplier's instructions. Antibody 9TL or its variants was diluted into 10 mM sodium acetate pH 4.0 or 5.0 and injected over the activated chip at a concentration of 0.005 mg/mL. Using variable flow time across the individual chip channels, a range of antibody density was achieved: 1000-2000 or 2000-3000 response units (RU). The chip was blocked with ethanolamine. […] HBS-EP buffer (0.01M HEPES, pH 7.4, 0.15 M NaCl, 3 mM EDTA, 0.005% Surfactant P20) was used as running buffer for all the BIAcore assays. […] Kinetic association rates (kₒₙ) and dissociation rates (koff) were obtained simultaneously by fitting the data to a 1:1 Langmuir binding model (Karlsson, R. Roos, H. Fagerstam, L. Petersson, B. (1994). Methods Enzymology 6. 99-110) using the BIAevaluation program. Equilibrium dissociation constant (KD) values were calculated as koff/kₒₙ.

[2] = molecular target: T2, biotinylated Aβ22-37 peptide (also: biotinylated, site not given here); assay: SPR, Fab over biotinylated peptide on streptavidin chip
T2 peptide: EDVGSNKGAIIGLMVG

[3] = molecular target: T3, biotinylated Aβ1-40 peptide (biotinylated (N-biotinylated in Example 7)); assay: as above
T3 construct: captured on streptavidin (SA) chip; also called Biotinylated Aβ peptide 1-40; Aβ1-40 on SA chip

[4] = molecular target: T4, biotinylated Aβ1-42 peptide (biotinylated (N-biotinylated in Example 7)); assay: as above
T4 construct: captured on streptavidin chip; also called N-biotinylated Aβ1-42

Aβ1-42 peptide = molecular target: T5, Aβ1-42 peptide; assay: ELISA, nonbiotinylated peptide on plate
T5 construct: also called 1-42 (WT)
Experimental: (§1) ELISA was used for measuring binding of antibody 6G and variants to nonbiotinylated Aβ peptides. NUNC maxisorp plates were coated with 2.5 ug/ml of Aβ peptides in PBS pH 7.4 for more than 1 hour at 4° C. Plates were blocked with 1% BSA in PBS buffer pH 7.4. Primary antibody (from cell supernatants, serum containing anti-Aβ antibody, or purified full antibody or Fabs at desired dilution) was incubated with the immobilized Aβ peptides for 1 h at room temperature. After washing, the plates were incubated with secondary antibody, a HRP conjugated goat anti-human kappa chain antibody (MP Biomedicals, 55233) at 1:5000 dilution. After washing, bound secondary antibody was measured by adding TMB substrate (KPL, 50-76-02, 50-65-02). The HRP reaction was stopped by adding 1M phosphoric acid and absorbance at 450 nm was measured.
(§2) All amino acid substitutions of the variants shown in Table 8 are described relative to the sequence of 6G. Binding was determined by ELISA described above with nonbiotinylated Aβ₁₋₄₀ or Aβ₁₋₄₂ immobilized on the surface of an ELISA plate.

Aβ1-40 peptide [5] = molecular target: T1, Aβ1-40 peptide; assay: ELISA, nonbiotinylated peptide on plate
Experimental: as §1, §2

T4 sequence (peptide, as listed by the source): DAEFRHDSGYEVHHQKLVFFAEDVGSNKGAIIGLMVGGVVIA
T3 sequence (peptide, as listed by the source): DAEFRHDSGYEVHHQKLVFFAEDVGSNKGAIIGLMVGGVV

Kd (Aβ1-40 peptide [1]): 0.9 nM
koff (Aβ1-40 peptide [1]): 0.000389 s⁻¹
kon (Aβ1-40 peptide [1]): 425000 M⁻¹ s⁻¹
B1: antibody 9TL (full monoclonal antibody) (antibody, human IgG2, kappa, V domains shown)
VH: QVQLVQSGAEVKKPGASVKVSCKASGYYTEAYYIHWVRQAPGQGLEWMGRIDPATGNTKYAPRLQDRVTMTRDTSTSTVYMELSSLRSEDTAVYYCASLYSLPVYWGQGTTVTVSS
VL: DVVMTQSPLSLPVTLGQPASISCKSSQSLLYSDAKTYLNWFQQRPGQSPRRLIYQISRLDPGVPDRFSGSGSGTDFTLKISRVEAEDVGVYYCLQGTHYPVLFGQGTRLEIKR
notes: human IgG2a constant region with A330P331 to S330S331; human kappa light chain; also called 9TL mAb

Kd [2]: 11 nM
koff [2]: 0.0039 s⁻¹
kon [2]: 360000 M⁻¹ s⁻¹
Kd [3]: 2 nM
koff [3]: 0.0007 s⁻¹
kon [3]: 300000 M⁻¹ s⁻¹
Kd [4]: 80 nM
koff [4]: 0.0016 s⁻¹
kon [4]: 18000 M⁻¹ s⁻¹
B2: 6G Fab fragment (Fab, V domains shown)
VH: QVQLVQSGAEVKKPGASVKVSCKASGYTFTTYAIHWVRQAPGQGLEWMGFTSPYSGVSNYNQKFKGRVTMTRDTSTSTVYMELSSLRSEDTAVYYCARFDNYDRGYVRDYWGQGTLVTVS
VL: DIVMTQSPDSLAVSLGERATINCRASESVDNDRISFLNWYQQKPGQPPKLLIYAATKQGTGVPDRFSGSGSGTDFTLTISSLQAEDVAVYYCQQSKEFPWSFGGGTKVEIKR
notes: Fab from E. coli with human IgG2 CH1 (P01859) and human kappa constant domain (CAA09181)

A450 ELISA (Aβ1-42 peptide): 0.9 A450
A450 ELISA (Aβ1-40 peptide [5]): 2.6 A450
B3: 6G light chain variant 8G (E97V) (antibody, V domains shown)
VH: QVQLVQSGAEVKKPGASVKVSCKASGYTFTTYAIHWVRQAPGQGLEWMGFTSPYSGVSNYNQKFKGRVTMTRDTSTSTVYMELSSLRSEDTAVYYCARFDNYDRGYVRDYWGQGTLVTVS
VL: DIVMTQSPDSLAVSLGERATINCRASESVDNDRISFLNWYQQKPGQPPKLLIYAATKQGTGVPDRFSGSGSGTDFTLTISSLQAEDVAVYYCQQSKVFPWSFGGGTKVEIKR
